According to patent publication US20070254316:

How the values were obtained:
[1] = system: T1, R4-C9 peptide (free peptide, CTLVPHTRC)
T1 sequence: CTLVPHTRC

[2] = system: T2, R5-XC1 peptide (free peptide, CQKHHNYLC)
T2 sequence: CQKHHNYLC

With “xPSM (extracellular portion of human PSMA, Tag-xPSM digested with enterokinase, no affinity tags)” the “NAALADase activity (hydrolysis of N-acetyl-L-aspartyl-L-[3,4-3H]glutamate by purified xPSM)” value [1] was “two selected PSMA binding peptides enhanced, rather than inhibited, enzyme activity in a dose dependant manner” and the “NAALADase activity (hydrolysis of N-acetyl-L-aspartyl-L-[3,4-3H]glutamate by purified xPSM)” value [2] was “two selected PSMA binding peptides enhanced, rather than inhibited, enzyme activity in a dose dependant manner”.
